According to paper PMC12067093 (2025):

B1: TRIM25 PRYSPRY (protein)
chain: KVLETFLAKSRPELLEYYIKVILDYNTAHNKVALSECYTVASVAEMPQNYRPHPQRFTYCSQVLGLHCYKKGIHYWEVELQKNNFCGVGICYGSMNRQGPESRLGRNSASWCVEWFNTKISAWHNNVEKTLPSTKATRVGVLLNCDHGFVIFFAVADKVHLMYKFRVDFTEALYPAFWVFSAGATLSICSPK
modifications: TRIM25 covalently pre-labelled with heterobifunctional compound HB2
B2: TRIM25 PRYSPRY (protein)
chain: B1 chain
modifications: TRIM25 covalently pre-labelled with heterobifunctional compound HB3
B3: TRIM25 PRYSPRY (protein)
chain: B1 chain
modifications: TRIM25 covalently pre-labelled with heterobifunctional compound HB1

biological target: BRD4 BD2 (Homo sapiens, UniProt O60885); experiment: SPR

Point of comparison: B2, Kd 22.5 nM. Against it:
- B1 — within 1.5-fold, 20 nM
- B3 — 1.5-fold lower, 15 nM
